2 molecules from publication PMC2115384 (The Journal of Cell Biology, 1989) can be followed below.

Common to all, as to experiment: native gel or EMSA
The target in test [1] is ankyrin solubilized from MDCK cells (dog (endogenous in MDCK)).
For test [2], the target named is fodrin solubilized from MDCK cells (alpha- and beta-subunits) (dog (endogenous in MDCK)).
The target in test [3] is purified human erythrocyte spectrin heterotetramers (human, UniProt P02549 1-2419; P11277 1-2137).
Chain of purified human erythrocyte spectrin heterotetramers (P02549 whole entry, chain 1 of 2): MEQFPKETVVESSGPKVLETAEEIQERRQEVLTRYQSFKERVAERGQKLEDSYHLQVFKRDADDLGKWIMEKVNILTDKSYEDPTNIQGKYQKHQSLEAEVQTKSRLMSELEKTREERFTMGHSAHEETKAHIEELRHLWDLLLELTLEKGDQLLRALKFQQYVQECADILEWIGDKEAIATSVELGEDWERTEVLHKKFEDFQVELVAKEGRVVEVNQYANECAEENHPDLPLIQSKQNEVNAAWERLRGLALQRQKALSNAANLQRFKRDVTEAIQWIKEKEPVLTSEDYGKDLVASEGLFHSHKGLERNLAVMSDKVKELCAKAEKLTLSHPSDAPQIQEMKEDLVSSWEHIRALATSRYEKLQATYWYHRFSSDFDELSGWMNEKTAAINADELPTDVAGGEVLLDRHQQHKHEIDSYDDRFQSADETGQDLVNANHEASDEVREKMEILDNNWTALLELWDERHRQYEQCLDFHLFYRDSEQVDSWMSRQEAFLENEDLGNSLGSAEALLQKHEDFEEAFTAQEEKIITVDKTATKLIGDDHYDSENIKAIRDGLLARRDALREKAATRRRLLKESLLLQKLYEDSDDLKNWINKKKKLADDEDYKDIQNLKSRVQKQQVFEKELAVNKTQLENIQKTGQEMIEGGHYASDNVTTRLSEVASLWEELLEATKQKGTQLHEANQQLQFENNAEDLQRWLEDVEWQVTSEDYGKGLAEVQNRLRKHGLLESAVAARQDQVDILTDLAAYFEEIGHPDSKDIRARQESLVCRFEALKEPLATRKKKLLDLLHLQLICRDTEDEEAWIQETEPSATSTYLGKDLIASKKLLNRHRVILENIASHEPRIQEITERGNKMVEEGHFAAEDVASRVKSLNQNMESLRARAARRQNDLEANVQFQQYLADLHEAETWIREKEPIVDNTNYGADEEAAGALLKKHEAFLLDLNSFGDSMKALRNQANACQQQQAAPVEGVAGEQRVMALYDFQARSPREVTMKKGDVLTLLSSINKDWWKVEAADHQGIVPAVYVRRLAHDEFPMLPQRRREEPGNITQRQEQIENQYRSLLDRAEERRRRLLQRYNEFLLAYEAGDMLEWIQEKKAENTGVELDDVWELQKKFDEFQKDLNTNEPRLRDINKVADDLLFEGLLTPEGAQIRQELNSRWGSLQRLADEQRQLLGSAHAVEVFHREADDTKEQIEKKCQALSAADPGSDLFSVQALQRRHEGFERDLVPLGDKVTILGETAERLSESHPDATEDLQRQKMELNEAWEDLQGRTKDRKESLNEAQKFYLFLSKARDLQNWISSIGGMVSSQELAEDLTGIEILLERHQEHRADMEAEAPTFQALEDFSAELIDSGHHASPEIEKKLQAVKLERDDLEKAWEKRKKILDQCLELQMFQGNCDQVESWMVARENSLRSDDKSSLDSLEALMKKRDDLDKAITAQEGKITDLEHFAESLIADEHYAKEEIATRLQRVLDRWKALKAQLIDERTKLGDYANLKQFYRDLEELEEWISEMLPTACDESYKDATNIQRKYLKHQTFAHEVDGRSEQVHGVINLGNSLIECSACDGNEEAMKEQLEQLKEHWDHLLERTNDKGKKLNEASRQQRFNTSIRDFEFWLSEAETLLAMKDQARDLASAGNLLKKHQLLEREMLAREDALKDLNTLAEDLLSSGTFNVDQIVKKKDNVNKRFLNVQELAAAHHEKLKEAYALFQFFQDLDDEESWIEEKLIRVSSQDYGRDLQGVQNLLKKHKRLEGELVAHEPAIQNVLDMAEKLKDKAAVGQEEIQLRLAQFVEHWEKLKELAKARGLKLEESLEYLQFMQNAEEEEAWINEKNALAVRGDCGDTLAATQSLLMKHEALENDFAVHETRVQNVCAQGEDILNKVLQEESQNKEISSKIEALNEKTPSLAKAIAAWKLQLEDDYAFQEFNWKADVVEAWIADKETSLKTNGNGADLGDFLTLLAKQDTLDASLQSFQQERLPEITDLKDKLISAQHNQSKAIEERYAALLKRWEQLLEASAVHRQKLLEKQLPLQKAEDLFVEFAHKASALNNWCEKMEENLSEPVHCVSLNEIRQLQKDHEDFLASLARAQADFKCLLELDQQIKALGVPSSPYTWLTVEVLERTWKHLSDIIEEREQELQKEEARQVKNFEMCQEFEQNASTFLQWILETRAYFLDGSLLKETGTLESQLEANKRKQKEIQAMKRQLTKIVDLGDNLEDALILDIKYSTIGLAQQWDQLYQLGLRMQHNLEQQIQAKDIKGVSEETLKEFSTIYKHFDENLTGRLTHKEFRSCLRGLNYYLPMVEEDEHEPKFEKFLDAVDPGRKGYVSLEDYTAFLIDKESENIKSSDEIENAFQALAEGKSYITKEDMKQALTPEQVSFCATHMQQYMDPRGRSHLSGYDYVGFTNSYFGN
Chain of purified human erythrocyte spectrin heterotetramers (P11277 whole entry, chain 2 of 2): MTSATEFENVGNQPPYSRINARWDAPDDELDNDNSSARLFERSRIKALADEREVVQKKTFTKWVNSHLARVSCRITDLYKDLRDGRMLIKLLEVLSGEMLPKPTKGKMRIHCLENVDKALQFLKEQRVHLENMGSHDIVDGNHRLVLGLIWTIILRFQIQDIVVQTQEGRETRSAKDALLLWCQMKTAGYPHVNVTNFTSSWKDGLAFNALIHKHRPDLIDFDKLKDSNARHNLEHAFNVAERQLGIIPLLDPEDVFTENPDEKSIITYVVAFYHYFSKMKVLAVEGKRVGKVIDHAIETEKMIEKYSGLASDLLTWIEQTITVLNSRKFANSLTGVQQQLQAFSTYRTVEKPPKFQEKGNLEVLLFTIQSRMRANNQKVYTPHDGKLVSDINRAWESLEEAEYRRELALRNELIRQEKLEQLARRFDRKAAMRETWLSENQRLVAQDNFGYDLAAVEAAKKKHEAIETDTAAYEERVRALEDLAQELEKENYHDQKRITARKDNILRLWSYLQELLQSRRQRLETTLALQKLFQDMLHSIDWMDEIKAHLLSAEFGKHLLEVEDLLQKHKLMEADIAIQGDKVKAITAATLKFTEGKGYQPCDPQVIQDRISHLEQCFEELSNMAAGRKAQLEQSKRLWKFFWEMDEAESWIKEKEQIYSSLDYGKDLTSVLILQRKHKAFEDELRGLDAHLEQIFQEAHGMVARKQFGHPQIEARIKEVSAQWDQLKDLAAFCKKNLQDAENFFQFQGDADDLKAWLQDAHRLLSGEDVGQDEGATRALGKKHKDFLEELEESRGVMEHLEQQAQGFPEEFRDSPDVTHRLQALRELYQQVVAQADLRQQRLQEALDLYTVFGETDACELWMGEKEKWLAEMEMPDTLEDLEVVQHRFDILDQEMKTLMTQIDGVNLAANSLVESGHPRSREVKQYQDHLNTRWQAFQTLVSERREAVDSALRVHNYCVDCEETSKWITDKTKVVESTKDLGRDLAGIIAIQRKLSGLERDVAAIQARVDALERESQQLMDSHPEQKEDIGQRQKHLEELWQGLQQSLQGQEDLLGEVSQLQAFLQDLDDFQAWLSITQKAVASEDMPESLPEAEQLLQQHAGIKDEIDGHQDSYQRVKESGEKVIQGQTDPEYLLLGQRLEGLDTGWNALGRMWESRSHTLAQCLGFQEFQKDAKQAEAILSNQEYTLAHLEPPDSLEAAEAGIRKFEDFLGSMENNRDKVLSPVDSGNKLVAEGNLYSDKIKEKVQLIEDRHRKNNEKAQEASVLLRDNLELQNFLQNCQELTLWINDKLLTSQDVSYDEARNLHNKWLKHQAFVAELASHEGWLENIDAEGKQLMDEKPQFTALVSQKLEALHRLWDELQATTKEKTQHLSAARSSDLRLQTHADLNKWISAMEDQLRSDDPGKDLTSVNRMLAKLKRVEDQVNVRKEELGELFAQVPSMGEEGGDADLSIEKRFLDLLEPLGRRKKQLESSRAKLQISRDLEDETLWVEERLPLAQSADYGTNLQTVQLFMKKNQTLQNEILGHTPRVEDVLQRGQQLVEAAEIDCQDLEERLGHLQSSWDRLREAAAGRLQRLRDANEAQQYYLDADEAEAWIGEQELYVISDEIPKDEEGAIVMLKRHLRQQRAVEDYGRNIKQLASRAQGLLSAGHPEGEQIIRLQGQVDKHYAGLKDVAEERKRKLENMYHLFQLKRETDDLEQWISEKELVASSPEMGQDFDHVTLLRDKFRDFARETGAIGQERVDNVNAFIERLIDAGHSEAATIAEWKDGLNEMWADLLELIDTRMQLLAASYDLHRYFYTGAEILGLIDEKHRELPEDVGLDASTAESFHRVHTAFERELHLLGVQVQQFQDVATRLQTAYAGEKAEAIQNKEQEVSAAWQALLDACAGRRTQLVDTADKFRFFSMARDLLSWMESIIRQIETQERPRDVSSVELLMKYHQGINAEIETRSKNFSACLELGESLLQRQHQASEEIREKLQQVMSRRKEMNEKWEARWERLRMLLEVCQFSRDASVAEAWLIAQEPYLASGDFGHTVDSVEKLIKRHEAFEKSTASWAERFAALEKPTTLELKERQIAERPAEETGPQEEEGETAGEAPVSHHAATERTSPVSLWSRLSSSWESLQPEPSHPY

Regarding “Na+,K+-ATPase solubilized from MDCK cells (alpha- and beta-subunits) (from UniProt P50997 1-1021; P06583 1-303) (complex)”, the percent of solubilized Na+,K+-ATPase comigrating with ankyrin and fodrin in test [1] and in test [2] was > 80% throughout.

B1: purified human erythrocyte ankyrin (natural protein, UniProt P16157 1-1881, looked up)
chain: MPYSVGFREADAATSFLRAARSGNLDKALDHLRNGVDINTCNQNGLNGLHLASKEGHVKMVVELLHKEIILETTTKKGNTALHIAALAGQDEVVRELVNYGANVNAQSQKGFTPLYMAAQENHLEVVKFLLENGANQNVATEDGFTPLAVALQQGHENVVAHLINYGTKGKVRLPALHIAARNDDTRTAAVLLQNDPNPDVLSKTGFTPLHIAAHYENLNVAQLLLNRGASVNFTPQNGITPLHIASRRGNVIMVRLLLDRGAQIETKTKDELTPLHCAARNGHVRISEILLDHGAPIQAKTKNGLSPIHMAAQGDHLDCVRLLLQYDAEIDDITLDHLTPLHVAAHCGHHRVAKVLLDKGAKPNSRALNGFTPLHIACKKNHVRVMELLLKTGASIDAVTESGLTPLHVASFMGHLPIVKNLLQRGASPNVSNVKVETPLHMAARAGHTEVAKYLLQNKAKVNAKAKDDQTPLHCAARIGHTNMVKLLLENNANPNLATTAGHTPLHIAAREGHVETVLALLEKEASQACMTKKGFTPLHVAAKYGKVRVAELLLERDAHPNAAGKNGLTPLHVAVHHNNLDIVKLLLPRGGSPHSPAWNGYTPLHIAAKQNQVEVARSLLQYGGSANAESVQGVTPLHLAAQEGHAEMVALLLSKQANGNLGNKSGLTPLHLVAQEGHVPVADVLIKHGVMVDATTRMGYTPLHVASHYGNIKLVKFLLQHQADVNAKTKLGYSPLHQAAQQGHTDIVTLLLKNGASPNEVSSDGTTPLAIAKRLGYISVTDVLKVVTDETSFVLVSDKHRMSFPETVDEILDVSEDEGEELISFKAERRDSRDVDEEKELLDFVPKLDQVVESPAIPRIPCAMPETVVIRSEEQEQASKEYDEDSLIPSSPATETSDNISPVASPVHTGFLVSFMVDARGGSMRGSRHNGLRVVIPPRTCAAPTRITCRLVKPQKLSTPPPLAEEEGLASRIIALGPTGAQFLSPVIVEIPHFASHGRGDRELVVLRSENGSVWKEHRSRYGESYLDQILNGMDEELGSLEELEKKRVCRIITTDFPLYFVIMSRLCQDYDTIGPEGGSLKSKLVPLVQATFPENAVTKRVKLALQAQPVPDELVTKLLGNQATFSPIVTVEPRRRKFHRPIGLRIPLPPSWTDNPRDSGEGDTTSLRLLCSVIGGTDQAQWEDITGTTKLVYANECANFTTNVSARFWLSDCPRTAEAVNFATLLYKELTAVPYMAKFVIFAKMNDPREGRLRCYCMTDDKVDKTLEQHENFVEVARSRDIEVLEGMSLFAELSGNLVPVKKAAQQRSFHFQSFRENRLAMPVKVRDSSREPGGSLSFLRKAMKYEDTQHILCHLNITMPPCAKGSGAEDRRRTPTPLALRYSILSESTPGSLSGTEQAEMKMAVISEHLGLSWAELARELQFSVEDINRIRVENPNSLLEQSVALLNLWVIREGQNANMENLYTALQSIDRGEIVNMLEGSGRQSRNLKPDRRHTDRDYSLSPSQMNGYSSLQDELLSPASLGCALSSPLRADQYWNEVAVLDAIPLAATEHDTMLEMSDMQVWSAGLTPSLVTAEDSSLECSKAEDSDATGHEWKLEGALSEEPRGPELGSLELVEDDTVDSDATNGLIDLLEQEEGQRSEEKLPGSKRQDDATGAGQDSENEVSLVSGHQRGQARITHSPTVSQVTERSQDRLQDWDADGSIVSYLQDAAQGSWQEEVTQGPHSFQGTSTMTEGLEPGGSQEYEKVLVSVSEHTWTEQPEAESSQADRDRRQQGQEEQVQEAKNTFTQVVQGNEFQNIPGEQVTEEQFTDEQGNIVTKKIIRKVVRQIDLSSADAAQEHEEVTVEGPLEDPSELEVDIDYFMKHSKDHTSTPNP
B1: in test [3], the binding result is “binds”.
